This is an account of results in publication PMC3149827 (2011).

The target in one assay is gC1qR (Homo sapiens) (UniProt Q07021). To be noted: cited from earlier work.
The target in assay [1] is Soluble expressed urokinase plasminogen activator receptor. In words: SPR.
The next assay has as its target T1, cytokeratin 1 (Homo sapiens, UniProt P04264).
T1 chain: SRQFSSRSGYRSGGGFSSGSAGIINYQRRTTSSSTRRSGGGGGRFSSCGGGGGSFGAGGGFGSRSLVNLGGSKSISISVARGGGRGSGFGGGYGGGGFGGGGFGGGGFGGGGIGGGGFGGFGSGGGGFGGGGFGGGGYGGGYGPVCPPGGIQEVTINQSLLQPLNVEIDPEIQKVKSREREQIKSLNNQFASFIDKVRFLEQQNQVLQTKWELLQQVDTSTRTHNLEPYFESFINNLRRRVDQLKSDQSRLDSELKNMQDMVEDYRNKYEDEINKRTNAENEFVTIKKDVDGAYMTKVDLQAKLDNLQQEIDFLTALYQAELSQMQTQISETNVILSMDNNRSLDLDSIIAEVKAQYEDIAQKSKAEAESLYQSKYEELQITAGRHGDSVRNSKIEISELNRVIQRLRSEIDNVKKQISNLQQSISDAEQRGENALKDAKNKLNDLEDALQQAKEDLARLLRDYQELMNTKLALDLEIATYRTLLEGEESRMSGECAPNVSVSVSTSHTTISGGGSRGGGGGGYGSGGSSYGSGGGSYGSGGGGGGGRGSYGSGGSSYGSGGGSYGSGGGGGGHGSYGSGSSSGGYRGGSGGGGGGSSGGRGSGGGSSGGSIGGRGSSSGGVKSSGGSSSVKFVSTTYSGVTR
In words: SPR. (In general: SPR reads the build-up and loss of mass on a sensor chip optically.)

Sequence of gC1qR (Homo sapiens) (Q07021 74-282): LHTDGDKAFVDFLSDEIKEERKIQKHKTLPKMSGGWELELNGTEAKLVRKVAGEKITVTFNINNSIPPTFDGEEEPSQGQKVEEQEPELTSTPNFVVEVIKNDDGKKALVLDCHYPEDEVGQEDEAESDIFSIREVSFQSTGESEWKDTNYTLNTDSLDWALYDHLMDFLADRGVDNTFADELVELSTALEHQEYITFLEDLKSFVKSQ

Usually Kd stands for a measure of binding affinity in units of concentration. Turning to “cleaved high-molecular-weight kininogen (HKa) (from UniProt P01042)”, the Kd with gC1qR (Homo sapiens) was 9 nM. For the molecule “Single-chain urokinase-type plasminogen activator (ligand)”, the Kd in assay [1] was 0.1 to 1 nM.

B1: high-molecular-weight kininogen (HK/HKa) (protein)
chain: QESQSEEIDCNDKDLFKAVDAALKKYNSQNQSNNQFVLYRITEATKTVGSDTFYSFKYEIKEGDCPVQSGKTWQDCEYKDAAKAATGECTATVGKRSSTKFSVATQTCQITPAEGPVVTAQYDCLGCVHPISTQSPDLEPILRHGIQYFNNNTQHSSLFMLNEVKRAQRQVVAGLNFRITYSIVQTNCSKENFLFLTPDCKSLWNGDTGECTDNAYIDIQLRIASFSQNCDIYPGKDFVQPPTKICVGCPRDIPTNSPELEETLTHTITKLNAENNATFYFKIDNVKKARVQVVAGKKYFIDFVARETTCSKESNEELTESCETKKLGQSLDCNAEVYVVPWEKKIYPTVNCQPLGMISLMKRPPGFSPFRSSRIGEIKEETTVSPPHTSMAPAQDEERDSGKEQGHTRRHDWGHEKQRKHNLGHGHKHERDQGHGHQRGHGLGHGHEQQHGLGHGHKFKLDDDLEHQGGHVLDHGHKHKHGHGHGKHKNKGKKNGKHNGWKTEHLASSSEDSTTPSAQTQEKTEGPTPIPSLAKPGVTVTFSDFQDSDLIATMMPPISPAPIQSDDDWIPDIQIDPNGLSFNPISDFPDTTSPKCPGRPWKSVSEINPTTQMKESYYFDLTDGLS
modifications: Zn2+
Consider B1, for which, in the assay with cytokeratin 1, the Kd is approximately 10 nM.
